B1: Eterna 7629678 (Same State - Theophylline A) (ssRNA)
RNA: UUCUACAUGAGGAUCACCCAUGUAAACGAUACCAGACGAGUAUUAGUCCCUUGGCAGCGUAGAGUGUCGUUUAUAGUAGGAUACC
B2: Eterna 7618834 (Exclusion - Theophylline A) (ssRNA)
RNA: AGACAUGAGGAUCACCCAUGUAGUAUGGAUACCAGAUCCAGAUUUAUCCCUUGGCAGCUGUGGUACAGCGUUGGAUCGCUCCUAG
B3: Eterna 7636321 (Exclusion - Theophylline B) (ssRNA)
RNA: CAUUAUGUAACUGAUACCAGUGUACUGACAUGAGGAUCACCCAUGUUGGGUUUUGUUGUACACCCUUGGCAGCAGAAUCAUAAUG
B4: Eterna 7687214 (Same State - Theophylline B) (ssRNA)
RNA: UCGUGUAUAUCGGAUACCAGUGAAAACGAUACAUGAGGAUCACCCAUGUGAGUUGAUGUACACCCUUGGCAGCUGUAUAUAUCUA
B5: Eterna 7639661 (Exclusion - Theophylline B) (ssRNA)
RNA: AUUUAUAGUUGUGAUACCAGACUUACAUGAGGAUCACCCAUGUUACUUAAAUGUUUUGAUGUCCCUUGGCAGCACUGUUUUUUUA
B6: Eterna 7733059 (Exclusion - Tryptophan B) (ssRNA)
RNA: GGAGUCGGCACGGCCGCCACUGCGGUGGUGUGACAUGAGGAUCACCCAUGUUGUCAUGCGGCCCUUAGGACCGGGUGGCGGUUCC
B7: Eterna 15995 (Sensor v3, turn-off variant 1) (ssRNA)
RNA: UAUUAGCAAGCAAGGUCCCACAUGAGGAUCACCCAUGUGCUCGUCUUAUAAGGUACUGUGACGAAAGUCACGGUACC
B8: Eterna 10111 (Sensor for hsa-mir-208a version 2) (ssRNA)
RNA: AAUUAUUAACAUGAGGAUCACCCAUGUAAAACAUGGAUUAACAAGCCUUUUCGUUUUUGCUCGUCUUAUAUUAUUAA
B9: Eterna 10232 (Sensor for hsa-mir-208a) (ssRNA)
RNA: AACCAACAAAUAAAACAAGCGUGCUCGUCACAUGAGGAUCACCCAUGUUUAAGCGCUAUUCCUACUUCCUCAGCGCC
B10: Eterna 7755473 (Exclusion - Arginine A) (ssRNA)
RNA: UCCUUUGUUGCCAGUGAUGUUGGACAGGAAGGAGCGGGCAUAAGCCCAGGUAGGUCGCCUGUCAACUUUCUUAUAGCCCGAAGGU
B11: Eterna 5921244 (Exclusion NG 2) (ssRNA)
RNA: AUUAUAUAGGAAGGAUAUAGAAUAUUAUUUUAACAUGAGGAUCACCCAUGUAACCUUAUGUGUAGCUAGAAGGUCCAUUUGUUA
B12: Eterna 1200 (Exclusion - Tryptophan A) (ssRNA)
RNA: UGGAGUGCCUGGUCGUCACUAUGCCAACCACGAGGACCGGUACGGCCGCCACUCGUGAGGGAUAUUCAGAAAGUGAUGUUUUUUG
B13: Eterna 5860431 (Same State NG 1) (ssRNA)
RNA: UAAUGUUAGCGAGGAUAUCGUUUAUUGAAGUUACGAGAAGGCGCUCUUCUUACAUGAGGAUCACCCAUGUCUGUUUUGCAUGAU
B14: Eterna 6436678 (Exclusion NG 2) (ssRNA)
RNA: AAAUUAAGAAGAGGAUAUUGACAUGAGGAUCACCCAUGUAUUUGGGAGUGUUUACUGAAUUCUUACGAGAAGGCUUACGAACUU
B15: Eterna 15548 (Exclusion 2) (ssRNA)
RNA: GUGUAGAUAGGAUAUGCUUUGAGCUUAUGAGAGUAUGCUCGACAUGAGGAUCACCCAUGUAGAAGGGUUUACAC
B16: Eterna 6444393 (Inverted Same State NG 3) (ssRNA)
RNA: UGUUUUGUACAUGAGGAUCACCCAUGUUAAUAUGUGGUAGUCAGAAGGCAUUGUUUGAGAUAUUAUGAGGAUAUGAUUAGUCUG
B17: Eterna 13817 (Sensor v3, turn-off variant 2) (ssRNA)
RNA: UGUACUAUGCGUGCUGACAUGCGUAGUGCAGCAGGUGUAACAUGAGGAUCACCCAUGUCCUCAUUUGCUCGUCUUAA
B18: Eterna 7740407 (Exclusion - Tryptophan A) (ssRNA)
RNA: AAGCAGUCACUCGAAACCAUCGAAGAUGGACGAGGACCGGUACGGCCGCCACUCGGAGUGAUGUUCCGAAGACUGCAAAAUAAAA
B19: Eterna 7690517 (Same State - Theophylline B) (ssRNA)
RNA: AAUUUAUUAUCUGAUACCAGACUUUUUCUUGUUUAUAAGUCAAGUGAUGUUUGACUUUUAGUCCCUUGGCAGCAGUAUUUUUUAA
B20: Eterna 7745661 (Exclusion - FMN B) (ssRNA)
RNA: AGACUACUGAUAGGAUAUAACAUCCUAGUCGUAUACCGAAAGGUAUACGAUUCCCUUCUAGUGAUGUUAGAAGGGUCGGUAGUCA
B21: Eterna 6120996 (Same State NG 1) (ssRNA)
RNA: GGUCCAGCAUGAGGAUAUGGCACCUUAUUGGUGCCAGAAGGCAUGUCUAUAGACAUGAGGAUCACCCAUGUAAUAAAUUGGACC
B22: Eterna 7666983 (Same State - Theophylline A) (ssRNA)
RNA: AAUAACAUGAGGAUCACCCAUGUAAAAGAUACCAGGGUGAUGAUCCUCCCUUGGCAGCUUACAGCUGAUCAAUAAGAUCGGCUGA
B23: Eterna 6036671 (Sensor, turn-off variant 1) (ssRNA)
RNA: GUCCUGGAUUAUCACAAGCACAUGAGGAUCACCCAUGUCAUGGGUGGAUCCCUAAAUGGGUAUUCUGCUCGUCUUAU
B24: Eterna 6124659 (Same State NG 3) (ssRNA)
RNA: GAAUAUUCGUUGAACAUGAGGAUCACCCAUGUAACUUGACAUGAGGAUAUGGAUUCUAAUUGGAUCCAGAAGGUAUGAAUAUUC
B25: Eterna 6113948 (Same State NG 3) (ssRNA)
RNA: UGUUGUGAACAGAACAUGAGGAUCACCCAUGUGCACUCGUGUAAGGAUAUACAAUCGUAUGGAAAGUAGAAGGUACUAAUUAUG
B26: Eterna 7678744 (Same State - Tryptophan A) (ssRNA)
RNA: ACAGGAUCGAAAGAUCCUGAGCAGUCAAAACGAGGACCGGUACGGCCGCCACUCGAAUAAGAGAGUGAUGUUCUCGACUGCAAAA
B27: Eterna 5982822 (Brourd's mod of Exclusion 4) (ssRNA)
RNA: GGAUCGAAUGUGAGGAUAUGCUGGUCCUUGGAUCAGCAGAAGGCACAUGAGGAUCACCCAUGUGGUAACGGUCC
B28: Eterna 12785 (Exclusion 4) (ssRNA)
RNA: CUCGUGUGAGGAUAUCUAUUCCACGGACGGGAGUCUUGAAGAGAGAAGGCACAUGAGGAUCACCCAUGUAAUAA
B29: Eterna 6395988 (Inverted Same State NG 2) (ssRNA)
RNA: GUCUGAUUGUAGAAGGUACUUAAUACUCAUGUAACAUGAGGAUCACCCAUGUAUCAACAAUAUUGUAAGGAUAUACAAAUCUCA
B30: Eterna 6444365 (Inverted Same State NG 3) (ssRNA)
RNA: AGAUUUGUACAUGAGGAUCACCCAUGUUAAUAGGUGGUUGUCAGAAGGCAUUAUUAGAGUUUUAAUGAGGAUAUGAAUUUACAA
B31: Eterna 5956610 (Same State NG 2) (ssRNA)
RNA: UGGCUGAGUCGAGGAUAUGAUCUUCAUAUAAUAACAUGAGGAUCACCCAUGUAUAAUUACAUGGAUCAGAAGGCGACUCAGCCA
B32: Eterna 5997882 (Exclusion 5) (ssRNA)
RNA: CAGCCCUGAGGAUAUCCCUACUUGUACAUGAGGAUCACCCAUGUCCUCCUCCGGGCUUCGGGAGAAGGCAGGUCUC

Biological target: T1, MS2 coat protein, dlFG mutant (Escherichia phage MS2, UniProt P03612, del68-81insG)
Assay: 4 mM Mg2+; theophylline 2 mM; RNA-MaP array; 100 mM Tris-HCl pH 7.5, 80 mM KCl, 4 mM MgCl2, 0.1 mg/mL BSA, 1 mM DTT, 0.01 mg/mL yeast tRNA, 0.01% Tween-20; protein 1.5 nM to 3 uM; 37 C (Table S3)
Details: chain copies: 2; label: tethered by stalled RNA polymerase

Row | Binder | Kd
1 | B1 | 28.4 nM
2 | B2 | 29.4 nM
3 | B3 | 90.9 nM
4 | B4 | 15.1 nM
5 | B5 | 14 nM

Biological target: T1, MS2 coat protein, dlFG mutant
Assay: 4 mM Mg2+; L-tryptophan 2.4 mM; RNA-MaP array; 100 mM Tris-HCl pH 7.5, 80 mM KCl, 4 mM MgCl2, 0.1 mg/mL BSA, 1 mM DTT, 0.01 mg/mL yeast tRNA, 0.01% Tween-20; protein 1.5 nM to 3 uM; 37 C (Table S3)
Details: chain copies: 2; label: tethered by stalled RNA polymerase

Row | Binder | Kd
6 | B6 | 57 nM

Biological target: T1, MS2 coat protein, dlFG mutant
Assay: 4 mM Mg2+; miR-208a RNA 100 nM (AU…UUGU); RNA-MaP array; 100 mM Tris-HCl pH 7.5, 80 mM KCl, 4 mM MgCl2, 0.1 mg/mL BSA, 1 mM DTT, 0.01 mg/mL yeast tRNA, 0.01% Tween-20; protein 1.5 nM to 3 uM; 37 C (Table S3)
Details: chain copies: 2; label: tethered by stalled RNA polymerase

Row | Binder | Kd
7 | B7 | 426 nM
8 | B8 | 135 nM
9 | B9 | 30.4 nM

Biological target: T1, MS2 coat protein, dlFG mutant
Assay: 4 mM Mg2+; no ligand; RNA-MaP array; 100 mM Tris-HCl pH 7.5, 80 mM KCl, 4 mM MgCl2, 0.1 mg/mL BSA, 1 mM DTT, 0.01 mg/mL yeast tRNA, 0.01% Tween-20; protein 1.5 nM to 3 uM; 37 C (Table S3)
Details: chain copies: 2; label: tethered by stalled RNA polymerase

Row | Binder | Kd
10 | B10 | > 3000 nM
11 | B11 | 224 nM
12 | B12 | > 3000 nM
13 | UUUAAUGAGGGAACUGCUUAGUUU (ssRNA) [Eterna 5 (OligoOldBControl)] | > 3000 nM
14 | B13 | 68.7 nM
15 | B14 | 223 nM
16 | B15 | 88.3 nM
17 | B16 | 60.6 nM
18 | B17 | 386 nM
19 | B18 | > 3000 nM
20 | B19 | > 3000 nM
21 | B20 | > 3000 nM
22 | B21 | 646 nM
23 | B22 | 192 nM
24 | B23 | 481 nM
25 | B24 | 75.8 nM
26 | B25 | 133 nM
27 | B26 | > 3000 nM
28 | B27 | 233 nM
29 | B28 | 166 nM
30 | B29 | 576 nM
31 | B30 | 974 nM
32 | B31 | 662 nM
33 | UUUGUUGCCAGUGAUGUUGGCAACUUU (ssRNA) [Eterna 11 (K4-alt7bp_control)] | > 3000 nM

Biological target: T1, MS2 coat protein, dlFG mutant
Assay: 4 mM Mg2+; FMN 200 uM; RNA-MaP array; 100 mM Tris-HCl pH 7.5, 80 mM KCl, 4 mM MgCl2, 0.1 mg/mL BSA, 1 mM DTT, 0.01 mg/mL yeast tRNA, 0.01% Tween-20; protein 1.5 nM to 3 uM; 37 C (Table S3)
Details: chain copies: 2; label: tethered by stalled RNA polymerase

Row | Binder | Kd
34 | B32 | 18.5 nM

Source: PMC9170038, “Crowdsourced RNA design discovers diverse, reversible, efficient, self-contained molecular switches”
